This is an account of results in patent US20200407449A1 (PHARMABCINE, published 2020).

The target in assay [1] is T1, mouse VISTA-Fc (mouse, UniProt Q9D659 33-191).
T1 construct: extracellular domain; also called mVISTA-Fc; VISTA-FC Mouse; not shown: Fc portion
T1 sequence (looked up): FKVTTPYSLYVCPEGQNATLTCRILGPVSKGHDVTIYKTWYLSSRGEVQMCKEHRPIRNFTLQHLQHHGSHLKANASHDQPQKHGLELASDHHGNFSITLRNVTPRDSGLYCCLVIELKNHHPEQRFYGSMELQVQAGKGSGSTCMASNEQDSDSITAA
The assay is described as follows: ELISA, plate coated with 1 ug/ml mouse VISTA-Fc, antibody at 1 ug/ml, anti-human IgG (kappa)-peroxidase. The protocol: ELISA assay: 1 μg/ml of Ag (human VISTA-Fc or mouse VISTA-Fc) was plated at 100 μl/well onto a 96-well plate and incubated at 4° C. overnight. The next day, the plated Ag was washed 3 times with 0.05% PBST and 200 μl of 2% BSA blocking buffer was added thereto, followed by incubation at 25° C. for 2 hours. After blocking was completed, the resulting product was washed 3 times with 0.05% PBST. 1 μg/ml of each antibody was injected at 100 μl/well and incubated at 25° C. for 1 hour. After incubation was completed, the resulting product was washed 3 times with 0.05% PBST and 100 μl of goat anti-human IgG (kappa)-conjugated peroxidase (1:2000, Bethyl Lab #A80-115P) was added thereto, followed by incubation at 25° C. for […]. After incubation, the resulting product was washed 3 times with 0.05% PBST, 100 μl of TMB (BD TMB substrate reagent set #555214) was added, color was developed for 3 to 5 minutes, 50 μl of a stop solution was added thereto, and then an assay was performed using an ELISA reader.

For assay [2], the target named is T2, hVISTA-Fc (R&D systems. Cat. No. 7126-B7) (human, UniProt Q9H7M9 33-194).
T2 construct: Bought antigen; also called human VISTA-Fc; VISTA-FC Human
T2 sequence: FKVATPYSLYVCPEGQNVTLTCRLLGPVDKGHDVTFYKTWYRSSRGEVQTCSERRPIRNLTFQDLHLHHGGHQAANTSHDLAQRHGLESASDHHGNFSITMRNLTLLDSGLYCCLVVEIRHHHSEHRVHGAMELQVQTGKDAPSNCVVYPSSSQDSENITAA
As to the kind of experiment: Octet (BLI), antibody immobilised on biosensor, antigen in solution. How it is done:
(§1) The binding ability of the screened antibody to the antigen was measured using an Octet (ForteBio). For this purpose, the antibody was immobilized on a biosensor, various concentrations of antigen were added to a 96-well plate, and then the binding ability was measured.

The target of assay [3] is T2, hVISTA-Fc (R&D systems. Cat. No. …). The assay is described as follows: monoclonal scFv phage ELISA, plate coated with 1 ug/ml VISTA-Fc, anti-M13-HRP. How it is done:
(§2) After the panning process was completed, the final round cell stock was diluted to form 200 to 500 colonies, spread on a CM agar plate, and then incubated overnight at 37° C. The next day, when the colonies grew, 200 μl of 2xYT medium (CM 34 μg/ml+1% glucose) was plated onto a 96-well deep plate, the colony was inserted into each well one by one and the plate was then incubated overnight at 37° C. and 3,000 rpm. The next day, 200 μl of 2×YT medium (CM 34 μg/ml+1% glucose) was plated onto a new 96-well dip plate, and […] of cells grown the day before were injected into each well and grown at 37° C. and 3,000 rpm for 1 hour and 10 minutes. The remaining cells were stored at −70° C. in 100 pμl of 50% glycerol. When the cells grew, 1 μl of a helper phage was mixed with 19 μl of 2×YT medium, and 20 μl of the resulting mixture was injected into each well and incubated for 30 minutes at 37° C. After incubation, centrifugation was performed at 3,000 rpm for 10 minutes. The supernatant was discarded and 200 μl of 2×YT medium (CM 34 μg/ml+Kan. 70 μg/ml+1 mM IPTG+5 mM MgCl₂) was added to the residue, followed by incubation in MegaGrow at 30° C. and 3,000 rpm overnight.
(§3) 1 μg/ml of Ag (hVISTA-Fc, mVISTA-Fc) was plated at 100 μl/well onto a 96-well immunoplate and then incubated overnight at 4° C. The next day, the cells grown the day before were centrifuged at 3,000 rpm for 10 minutes and stored at 4° C. The plated Ag was washed 3 times with 0.05% PBST, and then 200 μl of 2% BSA blocking buffer was added thereto, followed by incubation at 25° C. for 2 hours. After blocking was completed, the result was washed 3 times with 0.05% PBST. […] After phage binding was completed, the reaction product was washed three times with 0.05% PBST, 100 μl of HRP-conjugated mouse anti-M13 antibody (1:3000, #GE 27-9421-01) was added thereto, and reaction was allowed to proceed at 25° C. for 1 hour. After the reaction was completed, the resulting product was washed 3 times with 0.05% PBST, 100 μl of TMB (#BD TMB substrate reagent set 555214) was added thereto, color was developed for 3 to 5 minutes, 50 μl of a stop solution was added thereto, and then an assay was performed using an ELISA reader.

For assay [4] the target is unchanged. The assay is described as follows: dissociation rate constant of scFv in the screening of optimised clones; antigen not named.
The target of assay [5] is T1, mouse VISTA-Fc. The assay is described as follows: Octet (BLI), antibody immobilised on biosensor, antigen in solution. The protocol:
as §1

For assay [6], the target named is T1, mouse VISTA-Fc. As to the kind of experiment: monoclonal scFv phage ELISA, plate coated with 1 ug/ml VISTA-Fc, anti-M13-HRP. How it is done: as §2, §3

B1: anti-VISTA antibody 3C5 (IgG form) (antibody, V domains shown)
VH: QVQLVQSGAEVKKPGASVKLSCKASGYTFSSYWMHWVRQAPGQRLEWMGEINPGNGHTNYNEKFKSRVTITVDKSASTAYMELSSLRSEDTAVYYCAKDIAYYDFWSGDAFDLWGQGTMVTVSS
VL: SYELTQPLSVSVSPGQTASITCSGDKLGNKYASWYQQKPGQSPVLVIYQDNKRPSGIPERFSGSNSGNTATLTISGTQATDEADYYCQTWDRSTGVFGTGTKVTVLG
As to B1, in the assay with mouse VISTA-Fc [1], the binding result is “no binding (tested: 1 ug/ml)”. In assay [2], this molecule displayed a Kd of 13.9 nM, a koff of 0.00367 s⁻¹ and a kon of 264000 M⁻¹ s⁻¹.

B2: 3C5 monoclonal scFv phage (scFv, V domains shown)
VH: B1 VH
VL: B1 VL
B2: in assay [3], the OD was 2.2 OD.

B3: anti-VISTA antibody 1A12 (IgG form) (antibody, V domains shown)
VH: QMQLVESGGGLVEPGRSLRLSCTTSGFSFHDYTMYWVRQVPGKGLEWVSLISWDGTITFYADPVRGRFTISRDNSKNSLYLQMNSLRAEDTAVYYCAKEDRYDYYSGAFDIWGQGTVVTVSS
VL: QSALTQPRSVSGSPGQSVTISCTGTSSDVGGYDYVSWYQQHPGKAPKLILNDVNKRPSGVPDRFSGSKSGNTASLTISGLQPDDEADYYCSSFAGSNTLRVFGGGTKLTVLG
As for B3, the binding result with mouse VISTA-Fc [1] was “no binding (tested: 1 ug/ml)”. In assay [2], this molecule registered a Kd of 0.546 nM, a koff of 2.74e-05 s⁻¹ and a kon of 50200 M⁻¹ s⁻¹.

B4: 1A12 monoclonal scFv phage (scFv, V domains shown)
VH: B3 VH
VL: B3 VL
In assay [3], B4 registered an OD of 1.88 OD.

B5: 1B8 monoclonal scFv phage (scFv, V domains shown)
VH: QMQLVQSGAEVKKPGSSVKVSCKASGGSSSNYAISWVRQAPGQGLEWMGGIIPIFGTTSYAQKFQGRVTITADGSMSTAYMELSSLRSEDTAVYYCAKGAIEPWPFYFDNWGQGTLVTVSS
VL: QLVLTQPRSVSGSPGQSVTISCTGTNSDVGAYNYLSWYQQLPGRAPKVIIYDVNKRPSGVPDRFSGSRSGKTASLTISGLQAEDEADYYCAAWDDSLNGLVFGGGTKLTVLG
notes: also called IB8; Anti VISTA.3.0 (1B8)
Regarding B5, the koff in assay [4] turned out to be 0.000732 s⁻¹. Further, the OD in assay [3] worked out at 2.13 OD.

B6: anti-VISTA antibody 2C12 (IgG form) (antibody, V domains shown)
VH: QVQLVESGAEVKKPGASVKVSCKASGYIFTDYYMHWVRQAPGQGLEWMGVINPYDGRTSFAQKFQGRLTVTRDTSTSTAYMDLSGLRSEDTAVYYCAKQMGIWDYDAFDIWGQGTMVTVSS
VL: QFVLTQPSSVSGAPGQRVIISCTGSSSNIGAGYDVHWYQQLPGTAPKVLIYGNSDRPSGVPDRFSASKSATSASLAITGLQAEDEADYYCVAWDDSLKAYVFGTGTKVTVLG
notes: also called #2C12(H); #2C12(M)
In the case of B6, in the assay with mouse VISTA-Fc [5], binding was characterised by a dissociation constant (Kd) of 14 nM, the koff turned out to be 0.00078 s⁻¹ and the kon is 55700 M⁻¹ s⁻¹. In addition, in assay [2], the Kd is 1.02 nM, the koff amounted to 8.48e-05 s⁻¹ and the kon was found to be 83400 M⁻¹ s⁻¹.

B7: 2C12 monoclonal scFv phage (scFv, V domains shown)
VH: B6 VH
VL: B6 VL
Turning to B7, the OD with mouse VISTA-Fc [6] came to 2.03 OD; in assay [3], 2.11 OD.
